Measurements taken from article PMC3044768.

Target: authentic wild-type SARS-CoV 3C-like protease (3CLpro) (SARS-CoV) (UniProt P0C6X7)
Assay: ITC

With “authentic wild-type SARS-CoV 3C-like protease (3CLpro) (from UniProt P0C6X7 3241-3546) (enzyme)” the Kd was 21.4 µM.
